This is an account of results in US20250144213A1 (UTC THERAPEUTICS SHANGHAI, published 2025).

T1: CD123-Fc recombinant protein (human, UniProt P26951 19-305)
T1 construct: Soluble staining reagent; also called CD123-Fc protein; not shown: Fc part
T1 sequence (looked up): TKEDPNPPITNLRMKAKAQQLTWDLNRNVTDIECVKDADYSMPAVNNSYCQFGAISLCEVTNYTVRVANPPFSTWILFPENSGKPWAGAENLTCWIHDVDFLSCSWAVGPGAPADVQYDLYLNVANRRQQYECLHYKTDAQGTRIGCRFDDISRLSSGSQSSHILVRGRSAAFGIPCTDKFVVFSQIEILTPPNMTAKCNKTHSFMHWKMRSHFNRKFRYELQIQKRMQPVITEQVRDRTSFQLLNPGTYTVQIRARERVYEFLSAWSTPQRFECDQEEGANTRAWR

T2: BCMA-Fc recombinant protein (human, UniProt Q02223 1-54)
T2 construct: Soluble staining reagent, 5 µg/ml; not shown: Fc part
T2 sequence (looked up): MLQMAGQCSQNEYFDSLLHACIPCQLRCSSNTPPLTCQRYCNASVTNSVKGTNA

B1: anti-CD123 scFv-C32 (scFv)
scFv: QSVVTQPPSASGTPGQRVTISCSGSSSNIEGNTVSWYQQFPGAAPKLLIYSNSYRASGVPDRFSGSKSGTSASLAISELQSEDEADYYCSAWDDSLNGPVFGGGTKVTVLGGGGSGGGGSGGGGSEVQLVESGGGLVQPGGSLRLSCAASGFTFTSYAMNWVRQAPGKGLEWVSDISSSSSYIYYADSVKGRFTISRDNAKNSLYLQMNSLRAEDTAVYYCARDLYSGYDYGYYYGMDVWGQGTTVTVSS
notes: also called C32 scFv
B2: anti-CD123 scFv-C33 (scFv)
scFv: DIRLTQSPSSLSASVGDTITITCRASQDISSWIAWYQQKPGTAPRLLIYAASSLQSGVPSRFSGSGSGTDFTLTINSLHPEDFATYYCQQGSTFPLAFGGGTKVEIKGGGGSGGGGSGGGGSQVQLVQSGAEVKKPGSSVKVSCKASGGTFSSYAISWVRQAPGQGLEWMGGIIPIFGTANYAQKFQGRVTITADESTSTAYMELSSLRSEDTAVYYCARGLDNWNDVGWFDPWGQGTLVTVSS
notes: also called C33 scFv
B3: anti-CD123 scFv-C27 (scFv)
scFv: EIVLTQSPGTVSLSPGERATLSCRASQRVSATYLAWYQQKPGQAPRLLMYGGSRRATGIPDRFSGSGSGTDFTLTIRRLEPEDSAVYYCQQYGSSPLTFGGGTKLEIKGGGGSGGGGSGGGGSQVQLVQSGSELKKPGASVKVSCKASGYTFTSYGISWVRQAPGQGLEWMGWISAYNGNTNYAQKLQGRVTMTTDTSTSTAYMELRSLRSDDTAVYYCARDPYDDYGGNSRDEEDAFDIWGQGTTVTVSS
notes: also called C27 scFv
B4: anti-CD123 scFv-C30 (scFv)
scFv: AIRLTQSPSSLSASVGDRVTITCQASQNINNYLNWYQQKSGKAPKLLIYDASNLEAGVPSRFSGSASGTDFTFTISSLQPEDIATYYCQQNDNLPLTFGQGTRLEIKGGGGSGGGGSGGGGSEVQLVESGGGVVRPGGSLRLSCAASGFTFGDYGMSWVRQAPGKGLEWVSGINWNGGSTGYADSVKGRFTISRDNAKNSLYLQMNSLRAEDTALYYCARDRAPDYGDYLQVGTTDYWGQGTLVTVSS
notes: also called C30 scFv
B5: anti-CD123 scFv-C34 (scFv)
scFv: QSALTQPPSASGSPGQSVTISCTGTRSDVGAYNYVSWYQHHPGKAPKLMLYDVSKRPSGVSDRFSGSKSGNTASLTVSGLQSEDEANYYCSSYAGSGKYVFGSGTELTVLGGGGSGGGGSGGGGSEVHLVESGGGLVKPGGSLRLSCAASGFTFSDTWMSWVRQAPGKGLEWVGRIKSKTDGGTTNYAAPVKGRFTISRDDSKTTLFLQMNSLKTEDTAVYYCTGGDYPLFAYWGQGALVTVSS
notes: also called C34 scFv
B6: anti-CD123 scFv-C26 (scFv)
scFv: QSVLTQPPSASGTPGQRVTISCSGSRSNIGSNTVSWYQQFPGTAPKLLIYLNNQRPSGVPDRFSGSKSGTSASLAISGLQSEDEAEYYCATWDDDLNGVFGGGTKLTVLGGGGSGGGGSGGGGSEVQLVESGGGLVQPGGSLRLSCAASGFTLSNFEMNWVRQAPGRGLEWVSYISATTSATSYADSVKGRFTISRDNAKNSLYLQMNSLRAEDTAVYYCARVRDGYNFGYYYYYMDVWGKGTTVTVSS
notes: also called C26 scFv
B7: anti-BCMA scFv BCMA28 (scFv)
scFv: QSALTQPPSVSEAPRQRVTISCSGSSSNIGQNAVNWYQKLPGKAPKLLIYYNDLVSSGVSDRFSGSKSGTSASLAISGLQSEDEADYYCATWDDSLNGVVFGGGTKVTVLGGGGSGGGGSGGGGSQVQLVQSGPGLVKPSQTLSLTCAISGDSVSSNSAAWNWIRQSPSRGLEWLGRTYYRSKWYNDYAVSVKSRITINPDTSKNQFSLQLNSVTPEDTAVYYCARDYYYGMDVWGQGTTVTVSS
notes: also called BCMA28 scFv; BCMA28 CAR
B8: anti-BCMA scFv BCMA33 (scFv)
scFv: QSALTQPPSASGSPGQSVTISCTGTSSDVGGYNYVSWYQQHPGKAPKLMIYEVSKRPSGVPDRFSGSKSGNTASLTVSGLQAEDEADYFCSSYAGSNNFVVFGGGTKLTVLGGGGSGGGGSGGGGSEVQLVESGGGLVQPGRSLRLSCAASGFTFDDYAMHWVRQAPGKGLEWVSGISWNSGSIGYADSVKGRFTISRDNAKNSLYLQMNSLRAEDTALYYCAKVGASAALGAFDIWGQGTMVTVSS
notes: also called BCMA33 scFv; BCMA33 CAR
B9: anti-BCMA scFv BCMA22 (scFv)
scFv: QSALTQPASVSGSPGQSITISCTGTSSDVGGYNYVSWYQQHPGKAPKLMIYEVTNRPSGVSNRFSGSKSGNTASLTISGLQAEDEAHYYCISYTSSSTLDYVFGTGTKVTVLGGGGSGGGGSGGGGSEVQLVESGPGLVKPSGTLSLTCAVSGGSISSSNWWSWVRQPPGKGLEWIGEIYHSGSTNYNPSLKSRVTISVDKSKNQFSLKLSSVTAADTAVYYCARVGSGYSYGYGDRVLDYWGQGTLVTVSS
notes: also called BCMA22 scFv; BCMA22 CAR
B10: anti-BCMA scFv BCMA24 (scFv)
scFv: QSVLTQPPSASGTPGQRVTISCSGSSSNIGSYSVNWYQQIPGTAPKLLIYSNNQRPSGVPDRFSGSKSGTSASLAISGLQSEDEADYSCAAWDDSLNGVVFGGGTKLTVLGGGGSGGGGSGGGGSQVQLVQSGAEVKKPGSSVKVSCKASGGTFSSYAISWVRQAPGQGLEWMGGIIPIFGTANYAQKFQGRVTITADESTSTAYMELSSLRSEDTAVYYCARGSFYSSVNVWGQGTTVTVSS
notes: also called BCMA24 scFv; BCMA24 CAR
B11: anti-BCMA scFv BCMA23 (scFv)
scFv: QSALTQPPSASGTPGQRVTISCSGSSPNIGGNSVNWYQQLPGTAPKLLMYTNNQRPSGVPDRFSGSKSGTSASLAISGLQSEDEADYYCAAWDDSLNGVVFGGGTKLTVLGGGGSGGGGSGGGGSQVQLVQSGAEVKKPGESLKISCKGSGYSFTSYWIGWVRQMPGKGLEWMGIIYPGDSDTRYSPSFQGQVTISADKSISTAYLQWSSLKASDTAMYYCARRGGALDYWGQGTLVTVSS
notes: also called BCMA23 scFv; BCMA23 CAR
B12: anti-BCMA scFv BCMA27 (scFv)
scFv: QSALTQPPSASGSPGQSVTISCTGSRSNVGSYNDVSWYQQHPGKAPKLIIYDVDKRPAGVPDRFSGSKSGNTASLTVSGLQAEDDADYYCSSYGGTYSLFVFGTGTELTVLGGGGSGGGGSGGGGSEVQLVESGGDLVQPGGSLRLSCAASGFTFSSYGMHWVRQAPGKGLEWVAVISYDGSNKYYADSVKGRFTISRDNSKNTLYLQMNSLRAEDTAVYYCAKEEFYGDSSYGMDVWGQGTTVTVSS
notes: also called BCMA27 scFv; BCMA27 CAR
B13: anti-BCMA scFv BCMA30 (scFv)
scFv: DIQMTQSPSFLSASVGDRVTITCRASQGISSYLAWYQQKPGKAPKLLIYAASTLQSGVPSRFSGSGSGTEFTLTISSLQPEDFATYYCQQLNSYPPWTFGQGTKVEIKGGGGSGGGGSGGGGSQVQLVQSGAEVKKPGESLKISCKGSGYRFTSYWIGWVRQMPGKGLEWMGIIYPGDSDTRYSPPFQGQVTISADKSIDTAYLQWSSLKASDTAMYYCARLDASGSQRGGMDVWGQGTTVTVSS
notes: also called BCMA30 scFv; BCMA30 CAR
B14: anti-BCMA scFv BCMA34 (scFv)
scFv: QPGLTQPPSVSKGLRQTATLTCTGNSNNVGNQGAAWLQQHQGHPPKLLSYRNNNRPSGISERFSASRSGNTASLTITGLQPEDEADYYCSAWDSSLSARVFGGGTKLTVLGGGGSGGGGSGGGGSQVQLVQSGAEVKKPGASVKVSCKTSGYTFSNPFVHWVRQAPGQGLEWVGIINLSGGDTLYAQKFQGGVTMTRDTSTNTAYMELTSLTFEDTAVYYCARDQAGFGDSAYWGQGTLVTVSS
notes: also called BCMA34 scFv; BCMA34 CAR

The first experiment concerns the target T1, CD123-Fc recombinant protein. In words: FACS staining of CAR-T cells with CD123-Fc recombinant protein (FIG. 28).
Regarding B1, the binding result was “binds”.

Regarding B2, the binding result was “binds”.

Consider B3, for which the binding result is given as “binds”.

Consider B4, for which the binding result is recorded as “binds”.

As for B5, the binding result is given as “binds”.

Take B6: the binding result is reported as “binds”.

The next experiment has as its target T2, BCMA-Fc recombinant protein. Nature of the experiment: flow cytometry: lentivirally transduced CAR-T cells stained with 5 µg/ml BCMA-Fc, detected with anti-human IgG Fc (FIG. 17B). On the technique in general: A flow cytometer gives signals particle by particle.
For the molecule B7, the binding result was “binds”.

With B8, the binding result is “binds”.

Turning to B9, the binding result is reported as “binds”.

As to B10, the binding result was “binds”.

Regarding B11, the binding result was “binds”.

On to B12, for which the binding result is reported as “binds”.

Turning to B13, the binding result is listed as “binds”.

Turning to B14, the binding result was “binds”.
